For one test, the target named is T1, p6–UEV interaction (Homo sapiens, UniProt Q99816).
T1 sequence (Q99816 2-145 limits assumed): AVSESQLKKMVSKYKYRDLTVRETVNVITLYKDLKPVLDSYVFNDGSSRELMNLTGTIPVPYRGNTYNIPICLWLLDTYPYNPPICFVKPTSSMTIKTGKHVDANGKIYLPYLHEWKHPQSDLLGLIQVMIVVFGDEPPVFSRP
The test can be described thus: sandwich ELISA monitoring disruption of the p6–UEV PPI. The format is binding, HIV p6 / human UEV (TSG101). For orientation: ELISA stands for enzyme-linked immunosorbent assay.

The subject of test [1] is GAG-mediated budding of virus-like particles from HEK293T cells. Kind of test: virus-like particle budding assay. The settings on record: 25 μM. Type of test: cell-based, human.
Test [2] has as its target T2, His6-UEV (ubiquitin E2 variant domain of the human TSG101 protein) (human, UniProt Q99816 2-145).
T2 sequence: T1 sequence (Q99816 2-145 limits assumed)
Kind of test: fluorescence polarisation. (Fluorescence polarisation rises when a labelled molecule tumbles more slowly, as on binding a larger partner.)

Test [3] concerns the target T2, His6-UEV (ubiquitin E2 variant domain …). The test can be described thus: ELISA.

Where a SMILES comes first, the peptide text is derived from it. Where no end group is shown, it is not given here.

As a reminder, the IC50 is the midpoint of a concentration-inhibition curve. A low value points to greater potency. Molecule `CC[C@H](C)[C@@H]1NC(=O)[C@H](Cc2c[nH]c3ccccc23)NC(=O)CNC(=O)[C@H](CO)NC(=O)[C@H](C(C)C)NC(=O)[C@H](CC(N)=O)NC(=O)[C@H](Cc2c[nH]c3ccccc23)NC(=O)[C@H](Cc2ccc(O)cc2)NC1=O` [CP11] (cyclo(GWIYWNVS)) returned an IC50 against p6–UEV interaction of 30.2 ± 2.2 µM.

For the molecule CGRKKRRQRRRPPQ [Tat], in test [1], the “effect on viral budding” value was “no effect”.

B1: FITC labelled PTAP peptide (GGPEPTAPPEE) (peptide)
peptide: GGPEPTAPPEE
modifications: also: FITC label, position not given here
One may read the Kd as the free concentration of one partner at which half of the binding sites on the other are occupied at equilibrium, for simple one-to-one binding. The low end stands for a tighter complex, the high end for a looser complex. In turn, B1 gave a Kd in test [2] of 16.6 µM.

B2: N-terminal FITC-labeled peptide 3 (peptide)
chain: GVAGGAACLHFFLSMPPSHVLDIC
modifications: FITC on the N-terminus; two non-overlapping lanthionine (thioether) rings
Consider B2, for which the affinity in test [2], expressed as Kd, was 5.5 µM.

B3: GST-p6 (GST-tagged HIV p6 protein) (natural protein)
chain: LQSRPEPTAPPEESFRSGVETTTPPQKQEPIDKELYPLTSLRSLFGNDPSSQ
As usually defined, the EC50 is the midpoint of the concentration-response curve. Turning to B3, the EC50 in test [3] is 0.948 µM.

(Values after article PMC5866752 (Nature chemical biology, 2018).)
